± gives the standard error. For some of these results: Variants at the floor of the assay were thinned out. Where only a bound is given, the exact number is not on record here.

The labels stand for the following.
B1: glmS ribozyme (parent)
chain: AUAAAAGCGCCAGAACUACAGAAAUGUAGUUGACGAGGAGGAGGUUUAUCGAAUUUUCGGCGGAUGCCUCCAAA

Conditions in all cases: with glucosamine-6-phosphate
The variants in data set [1] derive from B1. Description: kcat; higher = faster cleavage; RNA array. In outline: (§1)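 Glucosamine-6-phosphate, from 40 μM to 10 mM in HEPES/KCl/Mg(OAc)2 buffer, was flowed over sequenced MiSeq chips carrying barcoded ribozyme variants transcribed in situ by E. coli RNA polymerase. A hybridised Cy3 probe tracked the variants at 37 °C as tiles were imaged over ~14 h. kobs, kcat and KM were obtained by fitting normalised per-tile medians to exponential decays and then applying weighted Michaelis–Menten fits across concentrations.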

Data set [2] covers variants of B1. As to the kind of experiment: KM; higher = weaker cofactor use; RNA array. In a few lines: as §1
Data set [3] covers variants of B1. As to the kind of experiment: self-cleavage kobs at 160 uM GlcN6P; higher = faster cleavage; RNA array. In outline:
as §1

Variants of B1 are the subject of data set [4]. As to the kind of experiment: self-cleavage kobs at 640 uM GlcN6P; higher = faster cleavage; RNA array. In outline:
as §1

Data set [5] covers variants of B1. Description: self-cleavage kobs at 2500 uM GlcN6P; higher = faster cleavage; RNA array. In a few lines: as §1
Variants of B1 are the subject of data set [6]. As to the kind of experiment: self-cleavage kobs at 10000 uM GlcN6P; higher = faster cleavage; RNA array. In outline:
as §1

Data set [7] covers variants of B1. As to the kind of experiment: self-cleavage kobs at 40 uM GlcN6P; higher = faster cleavage; RNA array. In a few lines: as §1

For orientation: kcat means the maximal rate divided by the concentration of active sites. Take AUAAAAGCGCCAGAACUACAGAAAUGUAGUUGACGAGGAGGAGGUUUAACGAAUUUUCGGCGGAUGACUCCAAA [U49A C67A]: the kcat with glucosamine-6-phosphate [1] came out at 1.28e-05 ± 1.6e-06 s⁻¹.
The term KM denotes the concentration of substrate that gives half-maximal velocity. For the variant AUAAAAGCGCCAGAACUACAGAAAUGUAGUUGACGAGGAGGAGGUUCAUCGGAUUUUCGGCGGAUGCCUCCAAA [U47C A52G], the kcat with glucosamine-6-phosphate [1] worked out at 0.000596 ± 8.2e-05 s⁻¹. For the same variant, the KM with glucosamine-6-phosphate [2] was 3550 ± 750 µM. Besides, the “self-cleavage kobs at 160 uM GlcN6P” value with glucosamine-6-phosphate [3] came to 3.5e-05 ± 1.7e-05 s⁻¹. Also, in the data set with glucosamine-6-phosphate [4], the “self-cleavage kobs at 640 uM GlcN6P” value was found to be 9.21e-05 ± 1.5e-05 s⁻¹. For the same variant, the “self-cleavage kobs at 2500 uM GlcN6P” value in the data set with glucosamine-6-phosphate [5] stood at 0.000226 ± 4.3e-05 s⁻¹. The “self-cleavage kobs at 10000 uM GlcN6P” value with glucosamine-6-phosphate [6] came to 0.000465 ± 8.9e-05 s⁻¹.
Consider UGGAUAGCGCCAGAACUACAGAAAUGUAGUUGACGAGGAGGAGGUUUAUCGAAUUUUCGGCGGAUGCCUCCAAA [A1U U2G A3G A5U], for which the kcat with glucosamine-6-phosphate [1] came to 0.0105 ± 0.0015 s⁻¹. The KM with glucosamine-6-phosphate [2] amounted to 1320 ± 260 µM. Further, the “self-cleavage kobs at 40 uM GlcN6P” value with glucosamine-6-phosphate [7] came out at 0.000338 ± 5.7e-05 s⁻¹. The “self-cleavage kobs at 160 uM GlcN6P” value with glucosamine-6-phosphate [3] came to 0.00116 ± 0.00022 s⁻¹. In addition, the “self-cleavage kobs at 640 uM GlcN6P” value with glucosamine-6-phosphate [4] was 0.00274 ± 0.00078 s⁻¹. Besides, the “self-cleavage kobs at 2500 uM GlcN6P” value with glucosamine-6-phosphate [5] is 0.006 ± 0.0016 s⁻¹. Also, the “self-cleavage kobs at 10000 uM GlcN6P” value with glucosamine-6-phosphate [6] was 0.0103 ± 0.0017 s⁻¹.
Take AUAAAAGCGCCAGAACUACAGAAAUGUAGUUGCCGAGGAAGAGGUUUAUCGAAUUUUCGGCGGAUGCCUCCAAA [A33C G40A]: in the data set with glucosamine-6-phosphate [1], the kcat amounted to 2.31e-05 ± 2.6e-06 s⁻¹. In the data set with glucosamine-6-phosphate [2], the KM was determined as 4070 ± 1400 µM.
On to AUAAAAGCGCCAGAACUACAGAAAUGUAGUGGACGAGGAGGAGGUUUAUCGAAUUUUCGACGGAUGCCUCCAAA [U31G G60A], for which the kcat with glucosamine-6-phosphate [1] was determined as 1.46e-05 ± 6.5e-06 s⁻¹.
As for AUAAAAGCGCCAGAACUACAGAAAUGUAGUUAACGAGGAGGAGGUUUAUCGAAUUUUCGCCGGAUGCCUCCAAA [G32A G60C], the kcat in the data set with glucosamine-6-phosphate [1] is less than 1e-05 s⁻¹. In the data set with glucosamine-6-phosphate [2], the Michaelis constant (KM) came out at 183 ± 55 µM. Besides, in the data set with glucosamine-6-phosphate [6], the “self-cleavage kobs at 10000 uM GlcN6P” value is less than 1e-05 s⁻¹.
On to AUAAAAGCGCCAGAACUACAGAAAUGUAGUUGACGAGGAGGAGAUUUAUCGAAUUUUCGGCGGAUGCCUCCAAA [G44A], for which, in the data set with glucosamine-6-phosphate [1], the kcat is 0.00053 ± 6.3e-05 s⁻¹. The KM with glucosamine-6-phosphate [2] came out at 1820 ± 420 µM. For the same variant, the “self-cleavage kobs at 160 uM GlcN6P” value in the data set with glucosamine-6-phosphate [3] was 3.7e-05 ± 2.4e-06 s⁻¹. In addition, the “self-cleavage kobs at 640 uM GlcN6P” value with glucosamine-6-phosphate [4] is 0.000135 ± 3e-06 s⁻¹. The “self-cleavage kobs at 2500 uM GlcN6P” value with glucosamine-6-phosphate [5] was 0.000389 ± 1e-05 s⁻¹. In the data set with glucosamine-6-phosphate [6], the “self-cleavage kobs at 10000 uM GlcN6P” value was determined as 0.000426 ± 8.1e-06 s⁻¹.
With AUAAAAGCGCCAGAACUACAGAAAUGUAGUUGACGAGGAGGAGGUCUAUCGAAUUUUCGGCGGAUGCCUGCAAA [U46C C70G], the kcat in the data set with glucosamine-6-phosphate [1] came out at 0.000447 ± 0.00013 s⁻¹. In the data set with glucosamine-6-phosphate [7], the “self-cleavage kobs at 40 uM GlcN6P” value is 6.28e-05 ± 2.3e-05 s⁻¹. Moreover, the “self-cleavage kobs at 160 uM GlcN6P” value with glucosamine-6-phosphate [3] is 3.81e-05 ± 1.5e-05 s⁻¹. Moreover, in the data set with glucosamine-6-phosphate [4], the “self-cleavage kobs at 640 uM GlcN6P” value is 0.000178 ± 2.9e-05 s⁻¹. Besides, the “self-cleavage kobs at 2500 uM GlcN6P” value with glucosamine-6-phosphate [5] was found to be 0.000453 ± 6.5e-05 s⁻¹. Moreover, the “self-cleavage kobs at 10000 uM GlcN6P” value with glucosamine-6-phosphate [6] was found to be 0.000346 ± 5.5e-05 s⁻¹.
On to AUAAAAGCGCCAGAACUACAGAAAUGUAGUUGACGAGGAGGAGGGUUAUCGAAUUAUCGGCGGAUGCCUCCAAA [U45G U56A], for which the kcat with glucosamine-6-phosphate [1] was 0.00335 ± 0.00043 s⁻¹. Also, the KM in the data set with glucosamine-6-phosphate [2] stood at 1720 ± 280 µM. For the same variant, in the data set with glucosamine-6-phosphate [7], the “self-cleavage kobs at 40 uM GlcN6P” value was 7.59e-05 ± 1.8e-05 s⁻¹. Also, the “self-cleavage kobs at 160 uM GlcN6P” value with glucosamine-6-phosphate [3] amounted to 0.000299 ± 6.2e-05 s⁻¹. Besides, the “self-cleavage kobs at 640 uM GlcN6P” value with glucosamine-6-phosphate [4] came out at 0.000848 ± 0.00019 s⁻¹. Further, the “self-cleavage kobs at 2500 uM GlcN6P” value with glucosamine-6-phosphate [5] turned out to be 0.00206 ± 0.00051 s⁻¹.
In the case of AUAAAAGCGCUAGAACUACAGAAAUGUAUUUGACGAGGAGGAGGUUUAUCGAAUUUUCGGCGGAUGCCUCCAAA [C11U G29U], the kcat with glucosamine-6-phosphate [1] worked out at 0.000681 ± 0.00029 s⁻¹. Also, the “self-cleavage kobs at 160 uM GlcN6P” value in the data set with glucosamine-6-phosphate [3] worked out at 5.37e-05 ± 1.3e-05 s⁻¹. For the same variant, the “self-cleavage kobs at 640 uM GlcN6P” value with glucosamine-6-phosphate [4] is 7.49e-05 ± 1.3e-05 s⁻¹. Further, the “self-cleavage kobs at 2500 uM GlcN6P” value with glucosamine-6-phosphate [5] came to 0.000407 ± 6.3e-05 s⁻¹. The “self-cleavage kobs at 10000 uM GlcN6P” value with glucosamine-6-phosphate [6] stood at 0.000463 ± 6.1e-05 s⁻¹.

Values taken from the supplement of paper PMC7125110.
